# Measured values reported in US7115382B1, “Method for detecting IGFBP-4 protease without detecting IGFBP-4 protease/proMBP Complex” (Mayo Foundation for Medical Education and Research, priority 1999, dated 2006).
# What was measured:
# rPAPP-A = target: T1, rPAPP-A (Homo sapiens, UniProt Q13219); test: Activity of recombinant PAPP-A against IGFBP-4; type: biochemical; details: in presence of IGF
# T1 construct: because the mature rPAPP-A is antigenic, functional, and secreted abundantly into the culture medium; made in house; host or cells: human embryonic kidney 293T cells, pcDNA3.1-PAPP-A; culture supernatant or purified
# Protocol: (§1) PAPP-A Activity. IGFBP-4 proteolysis was assayed by incubating the sample overnight at 37° C. with 2 mM CaC2/50 mM Tris (pH 7.5)/10,000 cpm of [^125I]IGFBP-4 in the absence and presence of 5 nM IGF-II in a total volume of 25 μl. Proteins were separated by reducing 15% SDS/PAGE and visualized by autoradiography. For some experiments, PAPP-A polyclonal antibody or nonspecific rabbit IgG was added to the assay mixture or was used in conjunction with protein G plus protein A-agarose (Oncogene Science) to immunoprecipitate IGFBP-4 protease activity before assay.
# (§2) Measurement of PAPP-A Proteolytic Activity: IGFBP-4 proteolysis was assayed as described in Example 1. The activity of the PAPP-A/proMBP complex was compared to the activity of rPAPP-A in two parallel time course experiments scaled up to larger reaction volumes: Equal amounts of sample A (pool of pregnancy serum diluted to 7 μg/ml of PAPP-A/proMBP as determined by ELISA calibrated with purified PAPP-A/proMBP) and sample B (as sample A, but rPAPP-A supernatant added to 7 μg/ml as determined by ELISA calibrated with purified rPAPP-A) were incubated with [^125I]IGFBP-4 in the presence of 5 nM IGF-II. […] The experiment with sample A was also carried out in the presence of polyclonal anti(PAPP-A/proMBP). A similar time course experiment was performed for comparison of PAPP-A activity in selected column fractions.
# [1] = target: T2, IGFBP-4 protease activity in follicular fluid (Homo sapiens, UniProt Q13219); test: IGFBP-4 proteolysis in IVF follicular fluid, cell-free [125I]IGFBP-4 assay; type: biochemical; details: for Effect on IGFBP-4 protease activity in IVF follicular fluid: added to the assay during 6 h incubation; for % Inhibition of IGFBP-4 proteolysis, FF: follicular fluid 10 μl, [125I]IGFBP-4, 6 h 37°C, EDTA 5 mM, 1,10 phenantholine 5 mM, PMSF 10 mM, Pefabloc 1 mM, TIMP-1 5 μg/ml
# T2 construct: Follicular fluid was obtained at the time of follicle aspiration for in vitro fertilization (IVF) procedures; from tissue; host or cells: IVF follicular fluid
# Protocol: PAPP-A Activity. […] For some experiments, PAPP-A polyclonal antibody or nonspecific rabbit IgG was added to the assay mixture or was used in conjunction with protein G plus protein A-agarose (Oncogene Science) to immunoprecipitate IGFBP-4 protease activity before assay.
# (§3) For some experiments, protease inhibitors (see Table 2) or PAPP-A polyclonal antibody were added to the assay mixture during the 6 h incubation. In others, PAPP-A antibody or nonspecific rabbit IgG was used in conjunction with Protein G-plus/Protein-A-agarose (Oncogene Science) to immunoprecipitate IGFBP-4 protease activity and the sample supernatants were then used in the protease assay.
# PAPP-A = target: T3, PAPP-A (Homo sapiens, UniProt Q13219); test: IGFBP-4 proteolysis by PAPP-A purified from pregnancy serum, [125I]IGFBP-4 assay; type: biochemical; details: PAPP-A purified from pregnancy serum 500 ng, EDTA 5 mM, 1,10 phenantholine 5 mM, PMSF 10 mM, TIMP-1 5 μg/ml
# T3 construct: a pro-part of 58 residues, and an 1547-residue circulating mature polypeptide; from tissue; host or cells: human term pregnancy serum
# Protocol: as §1
# IGFBP-4 proteolysis was assayed as described in Example 1, by incubating sample at 37° C. for 6 h with [^125I]IGFBP-4. Reaction products were separated by nonreducing 7.5–15% gradient SDS-PAGE, and visualized by autoradiography.
# as §3
# [2] = target: insulin-like growth factor binding protein-4 ([125I]IGFBP-4) (human) (UniProt P22692); test: cell-based or functional assay
# IGFBP-4 = IGFBP-4 cleavage by PAPP-A forms (rPAPP-A, PAPP-A/proMBP, column fractions); type: biochemical, human; details: for Amount required to obtain the same degree of IGFBP-4 cleavage: initial experiment, purified proteins; for IGF-dependent IGFBP-4 protease activity: with and without IGF-II
# Protocol: as §1, §2
# [3] = target: PAPP-A/proMBP complex purified from pregnancy serum (human) (UniProt Q13219); test: cell-based or functional assay
# [4] = target: PAPP-A (IGFBP-4 protease) in IVF follicular fluid (human) (UniProt Q13219); test: cell-based or functional assay
# [5] = target: T4, insulin-like growth factor binding protein-4 ([125I]IGFBP-4) (UniProt P22692)
# T4 sequence: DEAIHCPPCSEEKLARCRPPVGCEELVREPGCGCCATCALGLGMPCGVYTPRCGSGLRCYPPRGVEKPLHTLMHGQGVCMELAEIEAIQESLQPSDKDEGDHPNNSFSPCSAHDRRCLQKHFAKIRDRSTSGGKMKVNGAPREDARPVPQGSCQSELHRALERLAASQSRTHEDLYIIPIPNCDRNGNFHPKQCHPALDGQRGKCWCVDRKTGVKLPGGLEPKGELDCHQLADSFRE
# [6] = target: T5, insulin-like growth factor binding protein-4 ([125I]IGFBP-4), P22692
# T5 chain: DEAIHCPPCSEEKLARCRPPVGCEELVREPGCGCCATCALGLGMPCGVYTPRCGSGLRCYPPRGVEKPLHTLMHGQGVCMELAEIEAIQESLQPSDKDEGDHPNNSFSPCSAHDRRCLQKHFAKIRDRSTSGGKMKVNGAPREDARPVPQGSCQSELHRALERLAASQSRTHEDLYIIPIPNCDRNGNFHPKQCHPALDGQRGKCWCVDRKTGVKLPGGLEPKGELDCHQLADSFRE
# [7] = target: PAPP-A present in pregnancy serum (human, UniProt Q13219 82-1627); test: cell-based or functional assay
# human granulosa cells = details: Iwashita et al. 1996; cited from earlier work
# T1 sequence (Q13219 with tags, fused parts or gaps): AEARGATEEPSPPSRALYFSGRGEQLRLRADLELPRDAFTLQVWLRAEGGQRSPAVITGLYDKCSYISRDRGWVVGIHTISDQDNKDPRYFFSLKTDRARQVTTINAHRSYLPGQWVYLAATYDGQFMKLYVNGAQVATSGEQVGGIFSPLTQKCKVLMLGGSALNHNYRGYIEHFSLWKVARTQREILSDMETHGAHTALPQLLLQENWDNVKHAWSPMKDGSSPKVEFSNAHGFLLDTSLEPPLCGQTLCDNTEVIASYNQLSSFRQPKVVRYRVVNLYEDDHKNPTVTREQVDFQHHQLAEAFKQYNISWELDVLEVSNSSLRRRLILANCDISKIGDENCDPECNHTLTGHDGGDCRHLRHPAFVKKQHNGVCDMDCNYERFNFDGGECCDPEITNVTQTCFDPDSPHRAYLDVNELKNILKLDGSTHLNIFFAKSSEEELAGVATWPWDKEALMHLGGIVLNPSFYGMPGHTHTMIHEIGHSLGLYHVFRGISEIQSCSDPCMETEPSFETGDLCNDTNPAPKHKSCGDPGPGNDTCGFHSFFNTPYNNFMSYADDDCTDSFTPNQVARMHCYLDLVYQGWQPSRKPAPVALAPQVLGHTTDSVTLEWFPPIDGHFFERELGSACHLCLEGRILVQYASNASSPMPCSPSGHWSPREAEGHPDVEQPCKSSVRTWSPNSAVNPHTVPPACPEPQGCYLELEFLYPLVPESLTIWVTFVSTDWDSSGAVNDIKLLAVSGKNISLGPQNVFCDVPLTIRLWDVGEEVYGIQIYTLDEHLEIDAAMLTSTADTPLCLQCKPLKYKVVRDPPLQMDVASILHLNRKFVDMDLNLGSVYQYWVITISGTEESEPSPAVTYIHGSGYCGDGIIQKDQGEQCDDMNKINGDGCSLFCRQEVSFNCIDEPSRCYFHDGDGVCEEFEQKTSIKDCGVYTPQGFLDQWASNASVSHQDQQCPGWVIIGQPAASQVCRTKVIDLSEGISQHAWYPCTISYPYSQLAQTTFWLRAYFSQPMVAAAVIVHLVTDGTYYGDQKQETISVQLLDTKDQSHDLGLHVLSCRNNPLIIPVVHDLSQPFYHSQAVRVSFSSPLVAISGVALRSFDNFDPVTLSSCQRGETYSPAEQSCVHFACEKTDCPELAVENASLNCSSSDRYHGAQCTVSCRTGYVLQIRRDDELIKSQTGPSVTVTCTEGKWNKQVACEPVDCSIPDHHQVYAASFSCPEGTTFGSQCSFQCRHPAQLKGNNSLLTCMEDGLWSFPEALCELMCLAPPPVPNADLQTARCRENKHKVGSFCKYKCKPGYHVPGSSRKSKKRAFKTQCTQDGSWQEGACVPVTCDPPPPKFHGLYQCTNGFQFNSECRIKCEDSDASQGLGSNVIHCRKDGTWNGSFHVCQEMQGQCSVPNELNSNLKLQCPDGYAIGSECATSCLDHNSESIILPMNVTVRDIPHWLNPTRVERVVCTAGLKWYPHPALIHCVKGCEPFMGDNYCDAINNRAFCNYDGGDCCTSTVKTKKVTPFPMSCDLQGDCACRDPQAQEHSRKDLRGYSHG
molecule,measurement,setting,value
"c1cnc2c(c1)ccc1cccnc12 [1,10 phenantholine, 1,10-phenanthroline]",Inhibition of rPAPP-A activity against IGFBP-4,rPAPP-A,inhibited
same,Effect on IGFBP-4 protease activity in IVF follicular fluid,[1],completely suppressed
same,"% Inhibition of IGFBP-4 proteolysis, FF",[1],100%
same,"% Inhibition of IGFBP-4 proteolysis, PAPP-A",PAPP-A,100%
O=C(O)CN(CCN(CC(=O)O)CC(=O)O)CC(=O)O [EDTA],Inhibition of rPAPP-A activity against IGFBP-4,rPAPP-A,inhibited
same,Effect on IGFBP-4 protease activity in IVF follicular fluid,[1],completely suppressed
O=S(=O)(F)Cc1ccccc1 [PMSF],Effect on IGFBP-4 protease activity in IVF follicular fluid,[1],not
same,"% Inhibition of IGFBP-4 proteolysis, FF",[1],0%
same,"% Inhibition of IGFBP-4 proteolysis, PAPP-A",PAPP-A,20%
Cl.NCCc1ccc(S(=O)(=O)F)cc1 [Pefabloc],Effect on IGFBP-4 protease activity in IVF follicular fluid,[1],not
same,"% Inhibition of IGFBP-4 proteolysis, FF",[1],15%
PAPP-A/proMBP complex purified from pregnancy serum (from UniProt Q13219 82-1627; P13727 17-222),amount required for the same degree of IGFBP-4 cleavage,[2],50 ng
PAPP-A/proMBP: approximately 500 kDa disulfide-linked 2:2 complex of PAPP-A and proMBP purified from pregnancy serum,Amount required to obtain the same degree of IGFBP-4 cleavage,IGFBP-4,approximately 50 ng
same,IGF-dependent IGFBP-4 protease activity,IGFBP-4,exhibited IGF-dependent IGFBP-4 protease activity
TIMP-1 (from UniProt P01033 24-207),"% Inhibition of IGFBP-4 proteolysis (TIMP-1, 5 ug/ml)",[3],0%
same,"% Inhibition of IGFBP-4 proteolysis (TIMP-1, 5 ug/ml)",[4],0%
TIMP-1: a broad spectrum inhibitor of matrix metalloproteinases,Inhibition of rPAPP-A activity against IGFBP-4,rPAPP-A,not
same,Effect on IGFBP-4 protease activity in IVF follicular fluid,[1],had no effect
same,"% Inhibition of IGFBP-4 proteolysis, FF",[1],0%
same,"% Inhibition of IGFBP-4 proteolysis, PAPP-A",PAPP-A,0%
"rPAPP-A: recombinant PAPP-A expressed in mammalian cells, secreted as a homodimer of about 400 kDa devoid of proMBP",Amount required to obtain the same degree of IGFBP-4 cleavage,IGFBP-4,0.1 ng
same,"Difference in specific activity, rPAPP-A versus PAPP-A in pregnancy serum","IGFBP-4; time course, 7 μg/ml each, 5 nM IGF-II",about 100 fold
same,IGF-dependent IGFBP-4 protease activity,IGFBP-4,cleaves IGFBP-4 in an IGF dependent manner
recombinant PAPP-A (rPAPP-A),amount required for the same degree of IGFBP-4 cleavage,[5],approximately 50 ng of PAPP-A/proMBP complex purified from pregnancy serum was required to obtain the same degree of IGFBP-4 cleavage as 0.1 ng of rPAPP-A
same,cleavage of IGFBP-4,[5],"IGFBP-4 was cleaved in the presence, but not in the absence of IGF"
"uncomplexed PAPP-A: PAPP-A antigen eluting around fraction 24 of pregnancy serum, uncomplexed PAPP-A dimer","Specific activity against IGFBP-4, early versus late eluting Mono Q peak of pregnancy serum",IGFBP-4; fraction 24 versus fraction 43,greater than 25 fold
PAPP-A (IGFBP-4 protease) in IVF follicular fluid (protein) EARGATEEPSPPSRALYFSGRGEQLRLRADLELPRDAFTLQVWLRAEGGQRSPAVITGLYDKCSYISRDRGWVVGIHTISDQDNKDPRYFFSLKTDRARQVTTINAHRSYLPGQWVYLAATYDGQFMKLYVNGAQVATSGEQVGGIFSPLTQKCKVLMLGGSALNHNYRGYIEHFSLWKVARTQREILSDMETHGAHTALPQLLLQENWDNVKHAWSPMKDGSSPKVEFSNAHGFLLDTSLEPPLCGQTLCDNTEVIASYNQLSSFRQPKVVRYRVVNLYEDDHKNPTVTREQVDFQHHQLAEAFKQYNISWELDVLEVSNSSLRRRLILANCDISKIGDENCDPECNHTLTGHDGGDCRHLRHPAFVKKQHNGVCDMDCNYERFNFDGGECCDPEITNVTQTCFDPDSPHRAYLDVNELKNILKLDGSTHLNIFFAKSSEEELAGVATWPWDKEALMHLGGIVLNPSFYGMPGHTHTMIHEIGHSLGLYHVFRGISEIQSCSDPCMETEPSFETGDLCNDTNPAPKHKSCGDPGPGNDTCGFHSFFNTPYNNFMSYADDDCTDSFTPNQVARMHCYLDLVYQGWQPSRKPAPVALAPQVLGHTTDSVTLEWFPPIDGHFFERELGSACHLCLEGRILVQYASNASSPMPCSPSGHWSPREAEGHPDVEQPCKSSVRTWSPNSAVNPHTVPPACPEPQGCYLELEFLYPLVPESLTIWVTFVSTDWDSSGAVNDIKLLAVSGKNISLGPQNVFCDVPLTIRLWDVGEEVYGIQIYTLDEHLEIDAAMLTSTADTPLCLQCKPLKYKVVRDPPLQMDVASILHLNRKFVDMDLNLGSVYQYWVITISGTEESEPSPAVTYIHGSGYCGDGIIQKDQGEQCDDMNKINGDGCSLFCRQEVSFNCIDEPSRCYFHDGDGVCEEFEQKTSIKDCGVYTPQGFLDQWASNASVSHQDQQCPGWVIIGQPAASQVCRTKVIDLSEGISQHAWYPCTISYPYSQLAQTTFWLRAYFSQPMVAAAVIVHLVTDGTYYGDQKQETISVQLLDTKDQSHDLGLHVLSCRNNPLIIPVVHDLSQPFYHSQAVRVSFSSPLVAISGVALRSFDNFDPVTLSSCQRGETYSPAEQSCVHFACEKTDCPELAVENASLNCSSSDRYHGAQCTVSCRTGYVLQIRRDDELIKSQTGPSVTVTCTEGKWNKQVACEPVDCSIPDHHQVYAASFSCPEGTTFGSQCSFQCRHPAQLKGNNSLLTCMEDGLWSFPEALCELMCLAPPPVPNADLQTARCRENKHKVGSFCKYKCKPGYHVPGSSRKSKKRAFKTQCTQDGSWQEGACVPVTCDPPPPKFHGLYQCTNGFQFNSECRIKCEDSDASQGLGSNVIHCRKDGTWNGSFHVCQEMQGQCSVPNELNSNLKLQCPDGYAIGSECATSCLDHNSESIILPMNVTVRDIPHWLNPTRVERVVCTAGLKWYPHPALIHCVKGCEPFMGDNYCDAINNRAFCNYDGGDCCTSTVKTKKVTPFPMSCDLQGDCACRDPQAQEHSRKDLRGYSHG,proteolysis of [125I]IGFBP-4,[6],Incubation of IVF follicular fluid with [125I]IGFBP-4 resulted in the loss of intact IGFBP-4 ... and the generation of radiolabeled fragments of 18- and 14-kDa
"proform of eosinophil major basic protein (proMBP) (other, human, UniProt P13727 17-222, looked up) LHLRSETSTFETPLGAKTLPEDEETPEQEMEETPCRELEEEEEWGSGSEDASKKDGAVESISVPDMVDKNLTCPEEEDTVKVVGIPGCQTCRYLLVRSLQTFSQAWFTCRRCYRGNLVSIHNFNINYRIQCSVSALNQGQVWIGGRITGSGRCRRFQWVDGSRWNFAYWAAHQPWSRGGHCVALCTRGGHWRRAHCLRRLPFICSY",difference in specific activity between PAPP-A in pregnancy serum and rPAPP-A,[7],~100 fold
same,specific activity against IGFBP-4 of the early (uncomplexed) against the late (PAPP-A/proMBP) Mono Q peak,[7],> 25 fold
intact IGFBP4: intact insulin-like growth factor binding protein 4 (protein) DEAIHCPPCSEEKLARCRPPVGCEELVREPGCGCCATCALGLGMPCGVYTPRCGSGLRCYPPRGVEKPLHTLMHGQGVCMELAEIEAIQESLQPSDKDEGDHPNNSFSPCSAHDRRCLQKHFAKIRDRSTSGGKMKVNGAPREDARPVPQGSCQSELHRALERLAASQSRTHEDLYIIPIPNCDRNGNFHPKQCHPALDGQRGKCWCVDRKTGVKLPGGLEPKGELDCHQLADSFRE,Effect on IGF-stimulated estradiol production,human granulosa cells,inhibited
